Source: patent US7238786B2, “Monoclonal antibody cPAM4” (Immunomedics, Inc., priority 2002, dated 2007)

Tested on: PAM4 antigen
Assay: Competition with ^131I-mPAM4 binding to the antigen (FIG. 3)
Conditions: competing with ^131I-mPAM4 binding to the antigen
Description: A chimeric antibody is a recombinant protein that contains the variable domains including the complementarity determining regions (CDRs) of an antibody derived from one species while the constant domains of the antibody molecule is derived from those of a human antibody.

binding activity compared to murine PAM4: comparable binding activity
B1: cPAM4: chimeric PAM4: murine PAM4 variable domains with human light and heavy chain constant regions (antibody, V domains shown)
VL: DIQLTQSPAIMSASPGEKVTMTCSASSSVSSSYLYWYQQKPGSSPKLWIYSTSNLASGVPARFSGSGSGTSYSLTISSMEAEDAASYFCHQWNRYPYTFGGGTKLEIKR
VH: QVQLQESGPELVKPGASVKMSCKASGYTFPSYVLHWVKQKPGQGLEWIGYINPYNDGTQYNEKFKGKATLTSDKSSSTAYMELSRLTSEDSAVYYCARGFGGSYGFAYWGQGTLITVSA
